Experimental data from publication PMC6849719, “Characterization of the first naturally thermostable terpene synthases and development of strategies to improve thermostability in this family of enzymes” (The Febs Journal, 2017).

B1: Rcas_0622 (Roseiflexus castenholzii DSM 13941) (protein)
chain: MDQDYRARLVYPFSGAISPHADIVDQATLAWAAMFGLLTDSLRHKSRRLQYGLLAARAYPRADREMLQIAADWIAWLFFMDDQCDETGIGRDLQRMIALHERFLAILDGATPEAHDCALTYALADLRRRLALRAPDNWLRRFSEHVRLYFTANRWETVNRQRGATPNVATYCAARLFSGAVYACFDLIELAEQIELPFYARHHSIVQQLEQAANNIICWCNDVLSYPKEMQHGDRHNLVLVIQGEHQCSLPEAIDRALDLHAREVATFVRKRTCVPYFDAAVNTALEKYVTGLQFWICANRDWSLTATRYAPTHKSQEMVMAVAQQ
notes: full length, N-terminal His6 tag (pET28a, NheI-EcoRI), codon-optimised gene, E. coli BL21(DE3); ~40 kDa

Key:
[1] = system: T1, CC(C)=CCC/C(C)=C/CC/C(C)=C/CO[P@@](=O)(O)OP(=O)(O)O; assay: purified protein; assay type: biochemical, Roseiflexus sp. RS-1; details: 65 °C, 10 mM MgCl2, TS buffer (MES/Tris/CAPS, 100 mM NaCl), 1 μM enzyme, FPP 1.2-92 μM, commercial ammonium salt
T1 construct: full length (326 residues), N-terminal His6 tag (pET28a, NheI-EcoRI), codon-optimised gene, E. coli BL21(DE3); ~40 kDa

purified protein = substrate: CC(C)=CCC/C(C)=C/CC/C(C)=C/CO[P@@](=O)(O)OP(=O)(O)O; assay: purified protein; assay type: biochemical, Roseiflexus castenholzii; details: 65 °C, 10 mM MgCl2, TS buffer (MES/Tris/CAPS, 100 mM NaCl), 1 μM enzyme, FPP 1.2-92 μM, commercial ammonium salt

Row | Molecule | Km [1] | kcat [1] | Km (purified protein) | kcat (purified protein)
1 | RoseRS_3509 (Roseiflexus sp. RS-1) | 87 ± 31 µM | 0.95 ± 0.29 s⁻¹ | – | –
2 | B1 | – | – | 5.9 ± 2.0 µM | 0.09 ± 0.008 s⁻¹
